This data set concerns the molecule itself. The data set is described as follows: SEC; analytical SEC of TcoPYK alone, ENRICH 650 10/30 column, BioRAD gel filtration standard.

B1: recombinant T. congolense pyruvate kinase (enzyme, UniProt G0UYF4 1-499, looked up)
chain: MSQLQHNIGLSIFEPVAKHRANRIICTIGPSTQSVEALKGLMKSGMSVARMNFSHGSYEYHQTTINNVRAAAAELGLHIGIALDTKGPEIRTGLFKDGEATYAPGDTVLVTTDPAFEKIGTKEKFYVDYPQLPNVVRPGGLIYVDDGVLTLRVLSKEDDCTLKCHVNNHHRLTDRKGINLPGCEVDLPAVSEKDRKDLQFGVEQGVDMIFASFIRTADQVREVRAALGEKGKDTLIISKIENHQGVQNIDAIIEASDGIMVARGDLGVEIPAEKVVVAQMCIISKCNVAGKPVICATQMLESMTTNPRPTRAEVTDVANAVFNGADCVMLSGETAKGKYPNEVVQYMVRICIEAQSATHDSVMFNSIKNLQKIPMSPEEAVCSSAVSSAFEVQAKAILVLSNTGRSARLISKYRPNCPIICATTRLLTCRQLNVTRSVESVYYDVDAHGEDNDREKRVQLGVDWAKTKGYVSAGDVMVIVHADHSVKGYPNQTRLVRVR
notes: also called TcoPYK; source: E. coli BL21(DE3), purified (details in the Supplementary Information)
As to B1, the stoichiometry N – broadly, the number of molecules, sites or subunits per partner or assembly – was found to be 4.

Source of the values: paper PMC5998082, “Development of a Nanobody-based lateral flow assay to detect active Trypanosoma congolense infections” (Scientific Reports, 2018).
